# Data from US20210147573A1 (DENALI THERAPEUTICS, published 2021).
# T1: HA-Rab8a phosphorylated at T72 (overexpressed with LRRK2 in HEK293T cells, DMSO-treated lysate) (UniProt P61006 1-204, phosphothreonine at Thr72 (numbered with reference to SEQ ID NO:124))
# T1 construct: mature; In cell lysate of HEK293T co-transfected with FLAG-LRRK2 or FLAG-LRRK2-R1441C; also called pT72-Rab8a; phospho-Rab8a; not shown: N-terminal HA (hemagglutinin) tag
# T1 sequence (looked up): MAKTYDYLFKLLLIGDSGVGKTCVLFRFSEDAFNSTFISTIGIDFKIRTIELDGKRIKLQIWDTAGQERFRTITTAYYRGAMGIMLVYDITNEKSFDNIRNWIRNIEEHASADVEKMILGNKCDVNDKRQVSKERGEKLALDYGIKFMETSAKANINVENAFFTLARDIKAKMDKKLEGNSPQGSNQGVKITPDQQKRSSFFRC
# T2: HA-Rab8a (N-terminal HA-tagged full-length Rab8a overexpressed in HEK293T cells); not phosphorylated / LRRK2 … (UniProt P61006 1-204)
# T2 construct: mature; also called overexpressed Rab8a protein; not shown: N-terminal HA (hemagglutinin) tag
# T2 sequence (looked up): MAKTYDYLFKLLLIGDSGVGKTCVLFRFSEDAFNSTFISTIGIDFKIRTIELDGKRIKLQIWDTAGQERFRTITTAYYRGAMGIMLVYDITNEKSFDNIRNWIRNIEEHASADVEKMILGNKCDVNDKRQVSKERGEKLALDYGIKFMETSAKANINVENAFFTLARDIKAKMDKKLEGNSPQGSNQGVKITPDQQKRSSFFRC
# T3: HA-Rab10 (N-terminal HA-tagged Rab10 overexpressed in HEK293T cells); not phosphorylated / LRRK2 inhibitor … (UniProt P61026 1-200)
# T3 construct: mature; also called overexpressed Rab10 protein; not shown: N-terminal HA (hemagglutinin) tag
# T3 sequence (looked up): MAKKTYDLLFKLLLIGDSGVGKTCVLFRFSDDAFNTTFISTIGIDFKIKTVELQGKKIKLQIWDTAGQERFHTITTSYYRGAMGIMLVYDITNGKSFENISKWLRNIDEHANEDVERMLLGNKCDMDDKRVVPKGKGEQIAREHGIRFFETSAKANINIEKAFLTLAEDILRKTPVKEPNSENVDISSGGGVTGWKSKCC
# T4: recombinant Rab10 protein (Abnova, H00010890-P01) (UniProt P61026 1-200)
# T4 construct: Bought
# T4 sequence (looked up): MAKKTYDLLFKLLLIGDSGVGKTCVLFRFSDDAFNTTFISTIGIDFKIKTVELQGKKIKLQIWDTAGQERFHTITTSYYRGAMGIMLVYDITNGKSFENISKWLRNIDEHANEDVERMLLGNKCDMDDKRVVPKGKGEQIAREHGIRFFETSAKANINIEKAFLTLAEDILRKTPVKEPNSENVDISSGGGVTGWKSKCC
# T5: endogenously expressed human Rab10 protein (total Rab10, A549 cell lysates) (human, UniProt P61026 1-200)
# T5 construct: A549 is stated to be a human lung epithelial cell line
# T5 sequence: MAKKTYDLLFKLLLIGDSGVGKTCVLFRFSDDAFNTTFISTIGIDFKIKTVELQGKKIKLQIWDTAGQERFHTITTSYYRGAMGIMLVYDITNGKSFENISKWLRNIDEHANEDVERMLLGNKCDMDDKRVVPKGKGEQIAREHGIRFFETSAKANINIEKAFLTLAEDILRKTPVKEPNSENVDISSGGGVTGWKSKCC
# Key:
# [1] = target: HA-Rab10 (N-terminal HA-tagged Rab10 overexpressed in HEK293T cells; not phosphorylated / LRRK2 inhibitor A-treated lysate) (UniProt P61026)
# [2] = target: mouse Rab10 (endogenous, brain and kidney) (UniProt P61027)
# [3] = target: mouse Rab10 (endogenous, brain and kidney) (mouse) (UniProt P61027); test: cell-based or functional assay
# [4] = target: T1, HA-Rab8a phosphorylated at T72 …; test: sandwich ELISA screening assay; OD ratio of DMSO lysate to LRRK2 inhibitor A lysate
# Description: (§1) 96-well ELISA plates were coated with 10 μg/ml anti-rabbit IgG (Millipore) overnight at 4° C. Plates were washed with TBST (Tris Buffered Saline with Tween 20), and blocked with 2% BSA. Hybridoma supernatants were added in different dilutions, and incubated at room temperature for 2 hours. After TBST wash, cell lysates were then added at different protein concentration (0.08 mg/ml or 0.8 mg/ml). […] HRP conjugated anti-HA antibody (1:5000, CST #2999) was used for detection. TMB substrate was added and developed. Absorbance (OD) was measured at 650 nm using a plate reader.
# [5] = target: T2, HA-Rab8a (N-terminal HA-tagged …)
# Description: as §1
# [6] = target: T3, HA-Rab10 (N-terminal HA-tagged Rab10 …); test: sandwich ELISA with cell lysates; same screening and selection strategy used for subclone supernatants
# Description: (§2) Plates were then washed 3× with TBST on a BioTek plate washer. […] Plates were blocked for 1 hour at room temperature using 100 uL/well and washed 3× as before. Afterwards samples were added using 30 uL/well and incubated 1 hour at room temperature on a shaking platform. For ELISA with recombinant Rab proteins, the samples were recombinant Rab10 protein (Abnova, H00010890-P01) or Rab8a protein (Abnova, H00004218-Q01). For ELISA with cell lysates with overexpressed Rab10 protein, lysates were from HEK293T cells overexpressing HA-Rab10, and lysates from HEK293T cells overexpressing HA-Rab8a were used as negative controls. For ELISA with cell lysates with endogenously-expressed Rab10 protein, lysates were from A549 cells (wild-type), and lysates from Rab10 KO A549 cells were used as negative controls. After another 3× wash, bleeds/antisera or hybridoma supernatants were added as detection antibody with different dilutions at 30 ul/well, and were incubated at room temperature for 1 hour. […] After 1 hour incubation, plates were washed 3× as before. […] 50 uL/well of substrate was added to plates, which then were covered and briefly incubated for 1-2 minutes on a shaker platform. Afterwards plates were read on the Synergy plate reader to measure relative light units (RLU).
# [7] = target: T4, recombinant Rab10 protein (Abnova, …); test: sandwich ELISA with recombinant Rab proteins; same screening and selection strategy used for subclone supernatants
# Description: as §2
# [8] = target: T5, endogenously expressed human Rab10 …; test: sandwich ELISA with lysates of wild-type A549 cells, Rab10 KO A549 lysates as negative controls
# [9] = target: T1, HA-Rab8a phosphorylated at T72 …
# [10] = target: endogenous phosphorylated human Rab8a protein (pT72-Rab8a) (human) (UniProt P61006); test: western blot, human PBMC; band intensity normalized to actin; mean ± SEM
molecule,measurement,setting,value
LRRK2 variant Y1699C,"phosphorylation of Rab10 (pT73-Rab10 western blot signal normalized to total Rab10, against wild-type LRRK2)",[1],demonstrated significantly increased phosphorylation levels of Rab10
"mouse LRRK2 (endogenous; absent in LRRK2 knockout mice, Jackson Lab #016121)","reduction of pRab10 level in LRRK2 KO mouse kidney (western blot, normalized to actin)",[2],more than 90% reduction of pRab10 level
same,"reduction of pT73-Rab10 level in LRRK2 KO mouse brain (western blot, normalized to actin)",[2],30-40% reduction for pT73-Rab10 level
"G2019S-LRRK2 (BAC transgene in G2019S-Tg mice, Jackson Laboratories #018785)","increase in pT73-Rab10 level in brain and kidney of G2019S transgenic mice (western blot, normalized to actin)",[3],20 to 30%
LRRK2 variant I2020T,"phosphorylation of Rab10 (pT73-Rab10 western blot signal normalized to total Rab10, against wild-type LRRK2)",[1],demonstrated significantly increased phosphorylation levels of Rab10
LRRK2 variant R1441G,"phosphorylation of Rab10 (pT73-Rab10 western blot signal normalized to total Rab10, against wild-type LRRK2)",[1],demonstrated significantly increased phosphorylation levels of Rab10
LRRK2 variant G2019S (HEK293T expression),"phosphorylation of Rab10 (pT73-Rab10 western blot signal normalized to total Rab10, against wild-type LRRK2)",[1],demonstrated significantly increased phosphorylation levels of Rab10
LRRK2 variant G2385R,"phosphorylation of Rab10 (pT73-Rab10 western blot signal normalized to total Rab10, against wild-type LRRK2)",[1],demonstrated significantly increased phosphorylation levels of Rab10
"anti-pT72-Rab8a monoclonal antibody clone 24-3 (antibody, V domains shown, Rabbit monoclonal; also called anti-phospho Rab8a clone 24-3) VH: QSVEESGGRLVTPGTPLTLTCTVSGFSLSSYYITWVRQAPGKGREWLGIMNAGTTVHYANWVKGRFAISKTSTTVDLKITSPTTEDTATYFCARARNSVWMDIWGPGTLVTVSL VL: AAVLTQTPSPVSGAVGGSVTVNCQSDKSVYRDNLAWYQQKPGQPPKLLIYKASTLASGVPSRFRGSGAGTQFTLTISDVQCDDAATYFCAGGYSSDSDTAFGGGTEVVVK",Ratio (DMSO/LRRK2 inhibitor A),[4],5.19
same,OD A650 (LRRK2 inhibitor A),[5],0.286 OD A650
"anti-total Rab10 monoclonal antibody Clone 10-3 (antibody, V domains shown, Rabbit monoclonal from rabbit E8473 (Peptide A immunization); hybridoma supernatant; also called anti-total Rab10 clone 10-3) VH: QSVEESGGRLVTPGTPLTLTCTASGFSLSSYYMNWVRQAPGKGLEWIGFISSGGRTYYANWAKGRFTISKTSTTVDLKITSPTTEDMATYFCARAIYSSGNSAMAIWGPGTLVTVSL VL: AQVLTQTPSSVSAAVGGTVTISCQASQSVYDNSNLAWYQQKPGQPPELLIYYTSTLASGVPSRFSGSGSGTQFTLTISGVQCDDAAIYYCLGAFTCSSGDCNVFGGGTEVVVK",binding result,[6],binds
same,binding result,[7],binds
same,binding result,[8],binds
"anti-pT72-Rab8a monoclonal antibody clone 20 (antibody, V domains shown, Rabbit monoclonal; also called anti-phospho Rab8a clone 20; anti-phosphorylated T72-Rab8a monoclonal antibody (clone 20)) VH: QSVEESGGRLVTPGTPLTLTCTVSGFSLSSYAMGWVRQAPGEGLEYFGIINTGGSAYYTNWAKGRFTISRTSTTVHLKITSPTTEDTATYFCARIAGDTRYYGMDPWGPGTLVTVSS VL: AAVLTQTPSPVSAAVGGTVSISCQSSKSVRNNNYLAWYQQKPGQPPKLLIYGASTLASGVPSRFKGSGSGTQFTLTISDVQCDDAATYYCAGGYDGGSDDAFGGGTEVVVK",OD A650 (DMSO),[9],0.827 OD A650
same,Ratio (DMSO/LRRK2 inhibitor A),[4],8.35
same,Ratio of DMSO/LRRK2 inhibitor A,[10],3.5
same,OD A650 (LRRK2 inhibitor A),[5],0.099 OD A650
"anti-pT72-Rab8a monoclonal antibody clone 170-1 (antibody, V domains shown, Rabbit monoclonal; also called anti-phospho Rab8a clone 170-1) VH: QSLEESGGDLVKPEGSPTLTCTASGFSFSSSYWICWVRQAPGKGLEWIACIYGGSSGTIYYASWAKGRFTISKTSSTTVTLQMTSLTAADTATYFCARRAAGGYGGRLDLWGQGTLVTVSS VL: AQVMTQTPASVSAAVGGTVTINCQSSESVLNNNYLAWYQQKSGQPPKLLIWTASSLASGVPSRFSGSGSGTQFTLTISDVQCDDAATYYCAGGYYIGSDIFAFGGGTEVVVR",Ratio (DMSO/LRRK2 inhibitor A),[4],6.03
same,OD A650 (LRRK2 inhibitor A),[5],0.173 OD A650
